{"source": "patent US20120107932A1", "about": "“PRRS-VIRUS RECEPTOR AND ITS INHIBITOR” (priority 2009, published 2012)", "key": {"[1]": {"target": "NMHC II-A artificial polypeptide (Seq ID No: 2)", "assay": "indirect ELISA, antigen coated 200 ng/well, serum dilution 10^-2; control of the anti-polypeptide (Seq ID No: 2) group"}, "[2]": {"target": "non-muscle myosin heavy chain II-A (NMHC II-A) protein", "assay": "indirect ELISA, antigen coated 200 ng/well, serum dilution 10^-2; control of the anti-polypeptide (Seq ID No: 2) group"}, "[3]": {"target": "NMHC II-A artificial polypeptide (Seq ID No: 3)", "assay": "indirect ELISA, antigen coated 200 ng/well, serum dilution 10^-2; control of the anti-polypeptide (Seq ID No: 3) group"}, "[4]": {"target": "non-muscle myosin heavy chain II-A (NMHC II-A) protein", "assay": "indirect ELISA, antigen coated 200 ng/well, serum dilution 10^-2; control of the anti-polypeptide (Seq ID No: 3) group"}, "[5]": {"target": "NMHC II-A artificial polypeptide (Seq ID No: 4)", "assay": "indirect ELISA, antigen coated 200 ng/well, serum dilution 10^-2; control of the anti-polypeptide (Seq ID No: 4) group"}, "[6]": {"target": "non-muscle myosin heavy chain II-A (NMHC II-A) protein", "assay": "indirect ELISA, antigen coated 200 ng/well, serum dilution 10^-2; control of the anti-polypeptide (Seq ID No: 4) group"}, "[7]": {"target": "NMHC II-A artificial polypeptide (Seq ID No: 2)", "assay": "indirect ELISA, antigen coated 200 ng/well, serum dilution 10^-3; control of the anti-polypeptide (Seq ID No: 2) group"}, "[8]": {"target": "non-muscle myosin heavy chain II-A (NMHC II-A) protein", "assay": "indirect ELISA, antigen coated 200 ng/well, serum dilution 10^-3; control of the anti-polypeptide (Seq ID No: 2) group"}, "[9]": {"target": "NMHC II-A artificial polypeptide (Seq ID No: 3)", "assay": "indirect ELISA, antigen coated 200 ng/well, serum dilution 10^-3; control of the anti-polypeptide (Seq ID No: 3) group"}, "[10]": {"target": "non-muscle myosin heavy chain II-A (NMHC II-A) protein", "assay": "indirect ELISA, antigen coated 200 ng/well, serum dilution 10^-3; control of the anti-polypeptide (Seq ID No: 3) group"}, "[11]": {"target": "NMHC II-A artificial polypeptide (Seq ID No: 4)", "assay": "indirect ELISA, antigen coated 200 ng/well, serum dilution 10^-3; control of the anti-polypeptide (Seq ID No: 4) group"}, "[12]": {"target": "non-muscle myosin heavy chain II-A (NMHC II-A) protein", "assay": "indirect ELISA, antigen coated 200 ng/well, serum dilution 10^-3; control of the anti-polypeptide (Seq ID No: 4) group"}, "[13]": {"target": "NMHC II-A artificial polypeptide (Seq ID No: 2)", "assay": "indirect ELISA, antigen coated 200 ng/well, serum dilution 10^-4; control of the anti-polypeptide (Seq ID No: 2) group"}, "[14]": {"target": "non-muscle myosin heavy chain II-A (NMHC II-A) protein", "assay": "indirect ELISA, antigen coated 200 ng/well, serum dilution 10^-4; control of the anti-polypeptide (Seq ID No: 2) group"}, "[15]": {"target": "NMHC II-A artificial polypeptide (Seq ID No: 3)", "assay": "indirect ELISA, antigen coated 200 ng/well, serum dilution 10^-4; control of the anti-polypeptide (Seq ID No: 3) group"}, "[16]": {"target": "NMHC II-A artificial polypeptide (Seq ID No: 4)", "assay": "indirect ELISA, antigen coated 200 ng/well, serum dilution 10^-4; control of the anti-polypeptide (Seq ID No: 4) group"}, "[17]": {"target": "non-muscle myosin heavy chain II-A (NMHC II-A) protein", "assay": "indirect ELISA, antigen coated 200 ng/well, serum dilution 10^-4; control of the anti-polypeptide (Seq ID No: 4) group"}, "[18]": {"target": "NMHC II-A artificial polypeptide (Seq ID No: 2)", "assay": "indirect ELISA, antigen coated 200 ng/well, serum dilution 10^-5; control of the anti-polypeptide (Seq ID No: 2) group"}, "[19]": {"target": "non-muscle myosin heavy chain II-A (NMHC II-A) protein", "assay": "indirect ELISA, antigen coated 200 ng/well, serum dilution 10^-5; control of the anti-polypeptide (Seq ID No: 2) group"}, "[20]": {"target": "NMHC II-A artificial polypeptide (Seq ID No: 3)", "assay": "indirect ELISA, antigen coated 200 ng/well, serum dilution 10^-5; control of the anti-polypeptide (Seq ID No: 3) group"}, "[21]": {"target": "non-muscle myosin heavy chain II-A (NMHC II-A) protein", "assay": "indirect ELISA, antigen coated 200 ng/well, serum dilution 10^-5; control of the anti-polypeptide (Seq ID No: 3) group"}, "[22]": {"target": "NMHC II-A artificial polypeptide (Seq ID No: 4)", "assay": "indirect ELISA, antigen coated 200 ng/well, serum dilution 10^-5; control of the anti-polypeptide (Seq ID No: 4) group"}, "[23]": {"target": "non-muscle myosin heavy chain II-A (NMHC II-A) protein", "assay": "indirect ELISA, antigen coated 200 ng/well, serum dilution 10^-5; control of the anti-polypeptide (Seq ID No: 4) group"}, "[24]": {"target": "PRRS virus (PRRSV)", "assay": "cell-based or functional assay"}}, "data": [{"substance": "Negative control sera (mouse serum before immunization) (antibody)", "values": [{"measurement": "OD value (450 nm)", "setting": "[1]", "result": 0.12, "unit": "OD"}, {"measurement": "OD value (450 nm)", "setting": "[2]", "result": 0.13, "unit": "OD"}, {"measurement": "OD value (450 nm)", "setting": "[3]", "result": 0.11, "unit": "OD"}, {"measurement": "OD value (450 nm)", "setting": "[4]", "result": 0.12, "unit": "OD"}, {"measurement": "OD value (450 nm)", "setting": "[5]", "result": 0.15, "unit": "OD"}, {"measurement": "OD value (450 nm)", "setting": "[6]", "result": 0.14, "unit": "OD"}, {"measurement": "OD value (450 nm)", "setting": "[7]", "result": 0.11, "unit": "OD"}, {"measurement": "OD value (450 nm)", "setting": "[8]", "result": 0.1, "unit": "OD"}, {"measurement": "OD value (450 nm)", "setting": "[9]", "result": 0.13, "unit": "OD"}, {"measurement": "OD value (450 nm)", "setting": "[10]", "result": 0.11, "unit": "OD"}, {"measurement": "OD value (450 nm)", "setting": "[11]", "result": 0.13, "unit": "OD"}, {"measurement": "OD value (450 nm)", "setting": "[12]", "result": 0.11, "unit": "OD"}, {"measurement": "OD value (450 nm)", "setting": "[13]", "result": 0.08, "unit": "OD"}, {"measurement": "OD value (450 nm)", "setting": "[14]", "result": 0.1, "unit": "OD"}, {"measurement": "OD value (450 nm)", "setting": "[15]", "result": 0.09, "unit": "OD"}, {"measurement": "OD value (450 nm)", "setting": "[16]", "result": 0.1, "unit": "OD"}, {"measurement": "OD value (450 nm)", "setting": "[17]", "result": 0.08, "unit": "OD"}, {"measurement": "OD value (450 nm)", "setting": "[18]", "result": 0.07, "unit": "OD"}, {"measurement": "OD value (450 nm)", "setting": "[19]", "result": 0.08, "unit": "OD"}, {"measurement": "OD value (450 nm)", "setting": "[20]", "result": 0.08, "unit": "OD"}, {"measurement": "OD value (450 nm)", "setting": "[21]", "result": 0.07, "unit": "OD"}, {"measurement": "OD value (450 nm)", "setting": "[22]", "result": 0.09, "unit": "OD"}, {"measurement": "OD value (450 nm)", "setting": "[23]", "result": 0.07, "unit": "OD"}]}, {"substance": "non-muscle myosin heavy chain II-A (NMHC II-A) protein (receptor)", "values": [{"measurement": "CPE caused by PRRSV on Marc-145 and PAM cells, blocker at 1 µg/well ('+' means CPE in 25% cells) (% cells with CPE)", "setting": "[24]", "result": 25}]}]}
